Experimental data taken from patent publication US20220112258A1 (I MAB BIOPHARMA US, published 2022).

T1: IL7R of human primary CD4+ T cells (human, UniProt P16871 21-459)
T1 construct: whole, on cells; also called IL-7 receptor; IL7Rα (CD127) on CD4+ T cells
T1 sequence (looked up): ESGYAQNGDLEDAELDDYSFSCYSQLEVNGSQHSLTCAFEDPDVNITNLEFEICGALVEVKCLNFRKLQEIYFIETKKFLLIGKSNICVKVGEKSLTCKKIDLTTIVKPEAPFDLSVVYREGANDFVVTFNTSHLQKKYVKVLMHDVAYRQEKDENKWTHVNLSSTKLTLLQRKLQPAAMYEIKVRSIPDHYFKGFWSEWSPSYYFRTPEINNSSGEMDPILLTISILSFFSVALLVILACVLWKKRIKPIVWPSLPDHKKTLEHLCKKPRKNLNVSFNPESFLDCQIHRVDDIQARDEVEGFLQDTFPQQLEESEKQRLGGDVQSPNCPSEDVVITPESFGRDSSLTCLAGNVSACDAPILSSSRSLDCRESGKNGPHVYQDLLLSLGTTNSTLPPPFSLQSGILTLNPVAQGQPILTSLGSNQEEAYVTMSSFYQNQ


Legend:
[1] = biological target: T2, recombinant human his-tagged PD-L1 protein (human, UniProt Q9NZQ7 19-238); experiment: ELISA, his-tagged PDL1 coated, OD450
T2 construct: also called hPDL1-his; his-tagged human PD-L1; not shown: his tag
T2 sequence (Q9NZQ7 19-238 limits assumed): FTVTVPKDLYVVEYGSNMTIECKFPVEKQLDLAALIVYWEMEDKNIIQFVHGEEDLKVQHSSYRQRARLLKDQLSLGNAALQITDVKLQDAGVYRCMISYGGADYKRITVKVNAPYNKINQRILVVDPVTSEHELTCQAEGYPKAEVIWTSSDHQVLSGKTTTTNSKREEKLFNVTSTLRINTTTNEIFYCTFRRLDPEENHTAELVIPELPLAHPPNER
Source text: Briefly, for ELISA-based binding, his-tagged PDL1 was used as coating protein.

[2] = biological target: T2, recombinant human his-tagged PD-L1 …; experiment: SPR (Biacore T200), ligand captured on protein A chip, hPDL1-his as analyte
Protocol: A series of dilutions of human PD-L1 protein were injected over captured antibody at a flow rate of 10 μL/min. […] All the experiments were carried out on a Biacore T200. Data analysis was carried out using Biacore T200 evaluation software.

[3] = biological target: T1, IL7R of human primary CD4+ T cells; experiment: flow cytometry on human primary CD4+ T cells, 4 °C 30 min, PE anti-human Fc
Protocol: Briefly, for IL7R binding assay, human primary CD4⁺ T cells were incubated with various anti-PDL1-IL7 fusion molecules at 4° C. for 30 mins. […] For ligation-mediated receptor internalization assay, human primary CD4⁺ T cells were cocultured with fusion molecules at 37° C. for 15 mins to induce internalization. PE-cy7-conjugated-anti-CD127 (IL7Rα) antibody was used to detect the surface IL7Rα by FACS.

[4] = biological target: T3, PD-L1 expressed on cells (Raji-PD-L1; tumor cell lines RKO, HCC1954, HCC827) (human, UniProt Q9NZQ7 19-290); experiment: flow cytometry on HCC827 lung cancer cells, MFI
T3 construct: whole, on cells; also called cell-surface expressed PD-L1; cell surface PD-L1
T3 sequence (Q9NZQ7 19-290): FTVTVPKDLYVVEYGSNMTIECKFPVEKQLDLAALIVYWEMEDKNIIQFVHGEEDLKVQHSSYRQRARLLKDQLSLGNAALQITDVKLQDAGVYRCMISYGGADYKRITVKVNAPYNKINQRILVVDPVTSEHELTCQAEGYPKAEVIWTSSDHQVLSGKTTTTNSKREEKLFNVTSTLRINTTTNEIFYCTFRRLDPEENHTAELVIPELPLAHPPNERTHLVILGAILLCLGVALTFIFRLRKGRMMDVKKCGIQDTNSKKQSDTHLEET

[5] = biological target: T3, PD-L1 expressed on cells (Raji-PD-L1; …); experiment: flow cytometry on RKO colon carcinoma cells, MFI
[6] = biological target: T3, PD-L1 expressed on cells (Raji-PD-L1; …); experiment: flow cytometry on HCC1954 breast cancer cells, MFI
[7] = biological target: T3, PD-L1 expressed on cells (Raji-PD-L1; …); experiment: flow cytometry on Raji-PD-L1 cells, PE anti-human IgG Fc, MFI
Protocol: After washing by FACS staining buffer, the PE-conjugated anti-human IgG Fc specific antibody was added to each well and incubated on ice for 30 mins. The MFI of PE were evaluated by FACS Celesta.

EC50 [1] [nM] | Kd [2] [nM] | koff [2] [s⁻¹] | kon [2] [M⁻¹ s⁻¹] | binding result [3] | EC50 [4] [nM] | EC50 [5] [nM] | EC50 [6] [nM] | EC50 [7] [nM] | Binder
0.11 | 2.03 | 0.000164 | 80700 | no binding (tested: 100 nM) |  |  |  |  | α-PDL1(anti-PD-L1 v3) monoclonal antibody (antibody, V domains shown, also called parental anti-PD-L1 antibody (v3)) VH: EVQLVESGGGLVQPGGSLRLSCAASGFTFSSYDMSWVRQAPGKSLEWVATISDAGGYIYYSDSVKGRFTISRDNAKNSLYLQMNSLRDEDTAVYICAREFGKRYALDYWGQGTTVTVSS VL: DIQMTQSPSSLSASVGDRVTITCKASQDVTPAVAWYQQKPGKAPKLLIYSTSSRYTGVPSRFSGSGSGTDFTFTISSLQPEDIATYYCQQHYTTPLTFGQGTKLEIK
0.46 | 0.948 | 0.000795 | 838000 |  | 0.17 | 0.19 | 0.28 | 0.11 | α-PDL1(anti-PD-L1 v4) monoclonal antibody (antibody, V domains shown, also called parental anti-PD-L1 (V4) antibody) VH: QVQLLESGGGLVQPGGSLRLSCAASGFTFSSYWMSWVRQAPGKGLEWVANIKQDGSEKYYVDSVKGRFTISRDNAKNSLYLQMNSLRAEDTAVYYCARVALWDDAFDIWGQGTMVTVSS VL: DIQMTQSPSTLSASVGDRVIITCRASRGISSWLAWYQQKPGKAPNLLISKASSLESGVPSRFSGSGSGTDFTLTISSLQPEDFATYYCQQSSSIPLTFGGGTKVEIK
